According to the supplement of paper PMC10724198:
± gives the standard deviation of the averaged measurements.

What follows are sequences tested on Saccharomyces cerevisiae (assay: protein stability index of tFT-peptide fusion (C-terminal peptide) (PSI (0-1 scale)); higher = more stable (slower turnover)). Details: genetic background: wild type; temperature: 30 C.
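Further: PSI is a weighted mean of sequencing reads over stability bins, variants kept only with over 10 reads, mCherry proximal and sfGFP distal, peptide attached via GGGS linker.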

Sequence | protein stability index
VLPTHCPPPSSR | 0.715 ± 0.017
VLRGMSVFGLGE | 0.74 ± 0.14
VLRGVNGLRCRS | 0.6863 ± 0.0046
VLRIIMQCVFVR | 0.549 ± 0.0064
VLRLGFYNINKL | 0.676 ± 0.075
VLRVSRHLKAVK | 0.65 ± 0.024
VLSFALGSAGGR | 0.678 ± 0.069
VLSLCLSVRSFV | 0.562 ± 0.017
VLSLHPRRATLL | 0.615 ± 0.03
VLSVETGTSGLF | 0.655 ± 0.01
VLTPLWIANTFL | 0.673 ± 0.057
VLVAWWGLGGGV | 0.637 ± 0.069
VLWLGSFKSPRR | 0.727 ± 0.022
VMGAGGRTVAEW | 0.719 ± 0.019
VMGIGAAVRRVR | 0.713 ± 0.02
VMVGRVLEKGVV | 0.654 ± 0.069
VMVMELHGYPVV | 0.655 ± 0.044
VMVVVGLQGTMV | 0.5962 ± 0.0032
VNCAYCRERKRD | 0.7209 ± 0.0031
VPCCSAVDLLVS | 0.5999 ± 0.0045
VPCYSSACHGDA | 0.669 ± 0.1
VPFYHIFPPFRP | 0.777 ± 0.088
VPFYSPPCYSCL | 0.628 ± 0.04

Sequence | protein stability index
VPLRVSLGCDAF | 0.67 ± 0.04
VPPASLVCLTSP | 0.667 ± 0.0015
VPPNTLTAPHLF | 0.844 ± 0.046
VPPPSPTLSPHP | 0.656 ± 0.28
VPPPTAPVPPRP | 0.749 ± 0.096
VPRPPPHPPGDV | 0.622 ± 0.016
VPRTFQDLLPAP | 0.707 ± 0.04
VPSLFLYGNPMY | 0.71 ± 0.036
VPSLPSPCSSCA | 0.667 ± 0.046
VPSRTVTGTLPA | 0.681 ± 0.026
VPSVCPFLSVLL | 0.647 ± 0.035
VPSVGFSVHLLP | 0.692 ± 0.021
VPVAAVGGGECG | 0.575 ± 0.044
VPWGGLRFRDWW | 0.659 ± 0.099
VPYGKILQQGDI | 0.658 ± 0.048
VQEEGYYLHSSL | 0.699 ± 0.021
VQLGLGPDSSRS | 0.694 ± 0.019
VQSGIRLIFGRA | 0.545 ± 0.014
VQVSGFPHSRTR | 0.691 ± 0.023
VQYGHIVKGWCS | 0.697 ± 0.013
VRAAAFCFVRFR | 0.55 ± 0.021
VRAEVSNVDYVS | 0.658 ± 0.0096
VRALCRYRTVNG | 0.685 ± 0.035

Sequence | protein stability index
VRAVFPRSGLSC | 0.696 ± 0.048
VRCRLLDVGDAS | 0.642 ± 0.026
VRCSAASLKVRK | 0.675 ± 0.01
VRDRTSRGMRPA | 0.6945 ± 0.0043
VRDTTRTEKLGP | 0.687 ± 0.002
VREGKDREVSGF | 0.715 ± 0.031
VREKNHTLQMET | 0.646 ± 0.017
VRGGGRRACVVG | 0.607 ± 0.05
VRGGLVGRSVGC | 0.559 ± 0.08
VRGKGWRVGWWG | 0.668 ± 0.045
VRGRQGGGVGRA | 0.682 ± 0.1
VRHLGAIPQLSG | 0.637 ± 0.095
VRHSLFPCPSPT | 0.714 ± 0.035
VRHSPVVPANRP | 0.698 ± 0.094
VRIRRNGAVSFM | 0.6829 ± 0.0038
VRITRPFKAPTP | 0.711 ± 0.0056
VRLWLSLRLGFS | 0.587 ± 0.068
VRNASEDSVGQL | 0.708 ± 0.046
VRNESGGRAAAS | 0.6988 ± 0.0016
VRQLRGPWMEYP | 0.682 ± 0.076
VRRGAAGDDWGW | 0.869 ± 0.057
VRRGCGVGACPG | 0.618 ± 0.017
VRRILLGPPGRD | 0.653 ± 0.085

Sequence | protein stability index
VRRMLSSLIEGH | 0.619 ± 0.0072
VRRSHSGSNDVP | 0.673 ± 0.14
VRSCCFFLDAVW | 0.665 ± 0.029
VRSCFPVGMVWR | 0.72087 ± 0.00045
VRSLSSPPAPAT | 0.736 ± 0.038
VRSPLEHTVPFS | 0.655 ± 0.057
VRSRRQLPPADP | 0.723 ± 0.083
VRSYLARFEVYV | 0.531 ± 0.019
VRTSWRHESIKK | 0.618 ± 0.019
VRVRPAVRSGPE | 0.616 ± 0.006
VSCFVWFGFSCI | 0.5202 ± 0.0034
VSCPGWVVHVIV | 0.48 ± 0.079
VSDLFWAELIGN | 0.71 ± 5.7e-06
VSGGRQGGWGGW | 0.691 ± 0.034
VSGWDCEGDWVA | 0.76 ± 0.0096
VSLGHCGFYSRV | 0.648 ± 0.039
VSLLSSDTRSAY | 0.753 ± 0.07
VSLPTAPFPLPS | 0.844 ± 0.084
VSLVYLDHLSRS | 0.702 ± 0.029
VSPLVRVFSCAI | 0.598 ± 0.033
VSQKQALVCPRI | 0.705 ± 0.085
VSRGRSAKKSAI | 0.695 ± 0.06
VSRTVLSSDHRG | 0.752 ± 0.076

Sequence | protein stability index
VSRYRQWGSWER | 0.649 ± 0.013
VSSRHNCFRHGS | 0.696 ± 0.039
VSTLAPPQLQFK | 0.669 ± 0.081
VSVGCLFVVGRG | 0.713 ± 0.039
VSWVYNFKKIRS | 0.694 ± 0.078
VTCADEYYHSRR | 0.686 ± 0.03
VTECLRQWERLG | 0.545 ± 0.045
VTFTERIAIEWD | 0.703 ± 0.054
VTGIDGGSLCLR | 0.6842 ± 0.0059
VTGRTGGMWGAL | 0.754 ± 0.085
VTKNRHRQTETQ | 0.658 ± 0.036
VTLSPSLPGFPL | 0.6839 ± 0.00089
VTLTPPVLYTSL | 0.647 ± 0.059
VTVDLGCRATGE | 0.675 ± 0.067
VTVGGAWSGTRG | 0.647 ± 0.06
VTWNTLENMNLV | 0.673 ± 0.032
VTYFIPVTNRAS | 0.605 ± 0.0074
VVAERFADAKGS | 0.653 ± 0.025
VVAVGHWFDGGV | 0.623 ± 0.045
VVCFLVHGWGGW | 0.638 ± 0.048
VVCLGGGVLPRV | 0.654 ± 0.081
VVCRDGLSSCVG | 0.623 ± 0.019
VVCSSGFVSDPG | 0.5582 ± 0.0049

Sequence | protein stability index
VVDGGEHVCYRI | 0.654 ± 0.082
VVFSPQFRLPVP | 0.66 ± 0.024
VVGFVRPGMQGL | 0.673 ± 0.052
VVGGVGLGLWKV | 0.659 ± 0.097
VVGRTNRYAVPH | 0.662 ± 0.061
VVILGSMHLCSV | 0.561 ± 0.016
VVLFPILKLLSN | 0.53 ± 0.015
VVLWLASGVGGG | 0.75 ± 0.061
VVMLSLVALGRV | 0.523 ± 0.026
VVQEIGGSVRRE | 0.6814 ± 0.0035
VVRALSTQVCLP | 0.645 ± 0.098
VVRFEGYVLGWG | 0.647 ± 0.072
VVRKVALVALPL | 0.574 ± 0.05
VVRLKRLPPCSS | 0.699 ± 0.077
VVRSDFCFFFGI | 0.754 ± 0.065
VVRWFGGGCVRG | 0.682 ± 0.033
VVSGDAPVARRA | 0.6781 ± 0.0056
VVSGSHSVLYGS | 0.71 ± 0.028
VVSKMGFGAALV | 0.654 ± 0.085
VVSRLCCTRIRQ | 0.701 ± 0.04
VVSSAYRLKARP | 0.696 ± 0.046
VVSSFHYTSRQC | 0.744 ± 0.1
VVTRANVRRDKM | 0.672 ± 0.023

Sequence | protein stability index
VVVCGSSVLVLT | 0.555 ± 0.041
VVVLVGGGWVCV | 0.51 ± 0.035
VVVSGGGQGFWL | 0.757 ± 0.064
VVWGLGAGRMVW | 0.656 ± 0.076
VVWRCCGRGAEG | 0.6457 ± 0.0016
VVYFARGDNVYA | 0.682 ± 0.05
VWCGVLVRSCWV | 0.52 ± 0.0091
VWCVGRVGYEGE | 0.783 ± 0.1
VWFDPHEFIVIA | 0.59 ± 0.027
VWFGLLTTVNID | 0.5657 ± 0.0048
VWGGLAVVTGWA | 0.612 ± 0.073
VWGGLGGGVGRA | 0.668 ± 0.014
VWGVCAVFGCAG | 0.644 ± 0.12
VWKEPVQYSRQL | 0.626 ± 0.051
VWLAGVMVGRFQ | 0.5575 ± 0.0039
VWLWCDLSRGWI | 0.733 ± 0.013
VWNLELFFTLAT | 0.6331 ± 0.001
VWVVSGRGGWWG | 0.6336 ± 0.0033
VWVWATGWGARG | 0.7369 ± 0.0038
VYCIEFNRQWDA | 0.693 ± 0.048
VYEGLRSGPRSL | 0.718 ± 0.093
VYEIQCGSNFKG | 0.7 ± 0.052
